This series is described as follows: label from the status in PepcDB records.
On to “MSETTQTSQSLYQALWNSADVLRSKMDANDYKSYLLGMVFYKYLSDKMLFFVAETMEEETESLDEALAVYRKYYEDEETHEDLLAVITDEMSYAIHPDLTFTALVERVNDGSFQLEDLAQGFRDIEQSDELYENLFEDIDLYSKKLGATPQKQNQTVAAVMKELAVLDVAGHAGDMLGDAYEYLIGQFATDSGKKAGEFYTPQPVAKLMTQIAFLGREDKQGFTLYDATMGSGSLLLNAKRYSRQPQTVVYFGQELNTSTYNLARMNMILHGVPIENQFLHNADTLDEDWPTQEPTNFDGVLMNPPYSAKWSASSGFMDDPRFSPFGKLAPKSKADFAFLLHGYYHLKQDNGVMAIVLPHGVLFRGNAEGTIRKALLEEGAIDTVIGLPANIFFNTSIPTTVIILKKNRTNRDVYFIDASKEFDKGKNQNIMTDAHIEKILNAYKSREDIDKFAHLASFEEIVENDYNLNIPRYVDTFEEEEVEPLTEIVAKINQTNATIESQTASLLDMLGQLHGTTPEADEELKAFVKAFKGLEHHHHHH”, for which the protein production entry is recorded as “failed”. Next, “MSETVTQVNETTQQIVRSRTCGLKDFYIALVQSNTATAYTAGTPVKLARAIKAKIDEKWTSEKIYSDDNTEEVITSYEGTDVELEINALAPQDRVILFGQLYEKGFLRKSSDDRAPEVAVGWRERKLNGKYEFKWLYVGKFAEGISEEASTLEHHHHHH”: “not failed”. The value for “MSEVLTRGFRFRPADEEVTDYLMRKTQSPEFSCFIKTIDLYDKDPWVLGHVRDPCYNHYEWYYFVKKNPLGNEYLDKPRLNGFEHPRLKWDVLKQIHDALSSGQNVPPSVFTYGFRFHPTDQELLSLYLTPKAHSPDFSCFIRERESYMPWSHGFLNMLDLLFTRTVNGTTL” was “failed”; that for “MSEVTRSLLQRWGASLRRGADFDSWGQLVEAIDEYQILARHLQKEAQAQHNNSEFTEEQKKTIGKIATCLELRSAALQSTQSQEEFKLEDLKKLEPILKNILTYNKEFPFDVQPI” was “not failed”. Consider “MSEWRGFNRKGNTMKIRPGRHNAPDFPHGAAVTIGNFDGVHLGHKHILQKLRLEADARGLPVVAVVFEPQPKEFFALRTGKTPPCRISPLRTKLELLEGTGCVDAAWVLRFDRNFSEISAQAFIDRLLRQTLNTRYLLVGDDFRFGAGREGCFELLAQQPDMQTERTPSVIVEDIRTSSTAVRQALSDGNLAYAKKLLGHDYVLGGRVVHGRKLGRTLNAPTANIRLPGHRYALGGVFVVEADGAFGTRRGVASFGFNPTVDGGCSQKLEVHLFDFQGDLYGQRLNVRFLHKLRDEEKFDGMEELKRRIEADMEAAKCW”, for which the protein production entry is listed as “not failed”. The value for “MSFASETKKELTNLEVKDCCAKAELSALIRMNGSLSFSNRKVVLDVQTENAAIARRIYTLLKKQYDVSVELLVRKKMRLKKNNVYIVRLIENAKPILEDLKILGDNFVIARNISEDLVKKRCCKRSYMRGAFLAGGSVNNPETSSYHLEIFSLYKEHNDSLCRLMNQFHLNSKTLERKKGYITYLKEAEKITEFLNVIGAHNSLLRFEDVRIVRDMRNSVNRLVNCETANLNKTIGASLRQVENIKLIDERIGLDALPEKLREIAQLRIDYQEVTLKELGEMVSSGKISKSGINHRLRKLDEIAEQLR” was “not failed”; that for “MSFEAFTELYIRDVKNRLKENTWLTKEHIIRTKILPFFGKLKISEISTKEIITWQNEMLAYRDEKKKPYSQTYLKTLHNQLSAIFNHAVRYYELRSNPAAKVGNMGSELEHHHHHH” was “not failed”; that for “MSFKVISTGPQAIFQDRGRFGFASAGVGTSGSFDRLSAARANHALGNDPNATVVEILLGGFEVEALHTTSIVFTGTEAEVMVRTAGGQSKNATTNTIIDVAAGERIRVEPATYGMRAYFAARGGFAVEKTLGSASTDLISHMGPRPIEPGDVIDVATDIADSQWWPKLRQLPTLWKRMPTETLTVIRGPRDKWFTQESLNNFFTQVFTVSNDSNRIGLRMHSSEPIQHRVEGELKSEGMVRGSIQIPPGGNPVVFGPDHPVTGGYPVIAVLTSRSCDRSAQLLPGDKVRFKLL” was “failed”. For “MSFRVSASSSVKPEKDIRIGLLGASGYTGAEIVRLLANHPHFQVTLMTADRKAGQSMESVFPHLRAQKLPTLVSVKDADFSTVDAVFCCLPHGTTQEIIKELPTALKIVDLSADFRLRNIAEYEEWYGQPHKAVELQKEVVYGLTEILREDIKKARLVANPGCYPTTIQLPLVPLLKANLIKHENIIIDAKSGVSGAGRGAKEANLYSEIAEGISSYGVTRHRHVPEIEQGLSDVAQSKVTVSFTPHLMPMIRGMQSTIYVEMAPGVRTEDLHQQLKTSYEDEEFVKVLDEGVVPRTHNVRGSNYCHMSVFPDRIPGRAIIISVIDNLVKGASGQALQNLNIMLGYPETTGLLHQPLFP”, the protein production entry was “failed”.

As for “MSFSDHFSAVAASYAKARPRYPQRWFRYLARIVPDRQRVWDCATGNGQAAIALAEYFSEVIGSDASAAQVRQARSHPRVQYLVFPAEATPLAPASLDLITVAQAAHWFDLPQFYIEAQRLLRPGGVIALWGYGLGSLNPAIDHVFNHFYRDWLDPYWPPERQWVEQAYEGLSFPFEPLPTPTFSMQCDWTLFDLLAYLRTWSGVQQFQRQRGFDPVWAIAPELQRVWGDPQRYRRITWPLFAKVGRWQPLEHHHHHH”, the protein production entry is on record as “not failed”. As to “MSFSFLFILTAGMVAAFNPCGIALLPSYISYLIGGETKDHSFRYAIFKGLGLGGAMTTGFLTIFVLAGLLIGGLGSALTGIFPILSLVMGILIALLGLGMLFGKHLPIKIGSFQVKPGKWSIYFYGIAYAVTSLGCTLPAFMLVVSASLNDNSVTAVIIKFIIYSLGMGIVVTAITMVSLISRQLVQKFLHNYMGSIQKIAAVVIFLSGLYMAYYWYFGSGGICTF”, the protein production entry is “failed”. For “MSFVAYEELIKEGDTAILSLGHGAMVAVRVQRGAQTQTRHGVLRHSVDLIGRPFGSKVTCGRGGWVYVLHPTPELWTLNLPHRTQILYSTDIALITMMLELRPGSVVCESGTGSGSVSHAIIRTIAPTGHLHTVEFHQQRAEKAREEFQEHRVGRWVTVRTQDVCRSGFGVSHVADAVFLDIPSPWEAVGHAWDALKVEGGRFCSFSPCIEQVQRTCQALAARGFSELSTLEVLPQVYNVRTVSLPPPDLGTGTDGPAGSDTSPFRSGTPMKEAVGHTGYLTFATKTPG”, the protein production result is listed as “not failed”.

For “MSFWRPRLGLLDASVLSFAVLPTDLDFNRHMTNARYLSLMDLGRLDLILRSGMWRLVLRQSLQPVIGGALVRFRHALRPFQPFRLTTRVLAWDARWLFIEHRVETLDGKPACTAVVRAAFVASTGMLPTADLLTRLGYGGAAPDVPAWIAPWLQADLACQPASPPLENPL”, the protein production result is recorded as “failed”.

On to “MSGDMEATGWGYTHISVDSFCHKWTISNFSFCMDGIMETITSPKFSLKASDKVEWGLKVHPNGIDEESKNYLSVYLALLHCQKSPVWAKYEFWIINSQGEKYQSRKSTKVVSFHKNKYRGFKKFILRDFLFSNPHRLLPEDQLTLCCQVSIMGAFFKTPGQSITPAVPDPRHMMADDLGELWENSLCTDCCLLVAGQEFRAHKAILAARSPVFRAMFEHQMEERLTNRVDINGLDPKVFKEMMGFIYTGKAPHLHIHSMACDLLAAADRYGLEGLKVMCEDALCRNLSVENAAHTLILADLHNIEQLKTQALDFIALHASEVSENSEWKSMMESHPHLVAETFHSLASAQCFLEPSIKHLK”, for which the protein production entry was “failed”. For the sequence “MSGFHYPGVPVTALLYSLWPLFALIVGGYALRRWDFPGEAFWPAAERLNYFILFPALLFSNLATAPLDDPGLARQALAVLLGLGVAWLALLLCKRWRGWDAGRFGAIAQGVLRFNTYLGLAAVGSLYGKPGLTLAALMLALMVPTVNVMSVWALTAERGISLRALLLPILKNPLILACLAGALVNLAGVGLPGGSDRLLNLLAVASLPLGLLCVGAALKPQELGGEVAALGWNCAARLLAMPLLAFAIARGLGLPSMESAVLVLFFALPTAPTAYVLTRQLGGDGHLMAGIITLQTLLSGATLVGVLLVLQGSP”, the protein production entry is “failed”.

Source of the values: a protein production outcome set (Wang et al. 2014).
